Source: patent US20210340276A1 (Astellas, published 2021)

Target: T1, human cancer-specific MUC1 (on breast cancer cell line T-47D cells) (human, UniProt P15941 24-1255, cancer-specific incomplete O-glycosylation (T, Tn, 2,3ST) of the tandem repeat, as described in the background)
T1 construct: whole, on cells; cells fixed in formalin; also called Mucin 1
Assay: Cell ELISA on formalin-fixed T-47D cells, HRP anti-human Igκ detection, luminescence; reference 1B2 Fab
Protocol: Specifically, breast cancer cell line T-47D cells (purchasable from ATCC; HTB-133) expressing human cancer-specific MUC1 were inoculated at 0.75×10⁴ cells per well to a 96-well ELISA plate coated with collagen I, and cultured overnight. […] Then, a horseradish peroxidase (HRP)-labeled goat anti-human Igκ antibody (Southern Biotechnology Associates, Inc.) was reacted as a secondary antibody. ECL Prime Western Blotting Detection Reagent (GE Healthcare Japan Corp.) was added thereto for luminescence, and the degree of the luminescence was examined.

Binder | fold binding activity compared to 1B2 Fab [times]
P10-1 Fab (Fab, V domains shown, expressed in Expi293F cells, purified with KappaSelect; also called anti-human MUC1 antibody Fab fragment P10-1) VH: QVQLVQSGAEVKKPGASVKVSCKASGYTFTNYGLSWVRQAPGQGLEWMGENHPGSGIIYHNEKFRGRVTLTADRSTSTAYMELSSLRSEDTAVYYCARSSGTRGFAYWGQGTLVTVSS VL: DVVMTQTPLSLSVTPGQPASISCRSSQSIVHSNGNTYLEWYLQKPGQSPQLLIYRVSNRFSGVPDRFSGSGSGTDFTLKISRVEAEDVGVYYCFQGSHGPWTFGQGTKLEIKR | ≥ 10
P10-2 Fab (Fab, V domains shown, heavy chain N-terminal glutamine modified into pyroglutamic acid in a great majority of purified antibodies (Example 2), expressed in Expi293F cells, purified with KappaSelect; also called anti-human MUC1 antibody Fab fragment P10-2) VH: QVQLVQSGAEVKKPGASVKVSCKASGYTFTNYGLSWVRQAPGQGLEWMGENHPGSGIIYHNEKFRGRVTLTADRSTSTAYMELSSLRSEDTAVYYCARSSGTRGFDYWGQGTLVTVSS VL: DVVMTQTPLSLSVTPGQPASISCRSSQSIVHSNGNTYLEWYLQKPGQSPQLLIYRVSNRFSGVPDRFSGSGSGTDFTLKISRVEAEDVGVYYCFQGSHGPWTFGQGTKLEIKR | ≥ 10
